Test [1] deals with T1, extracellular domain of the mouse transferrin receptor (mouse, UniProt Q62351 89-763).
T1 construct: extracellular domain; Bought, SinoBiological #50741-M07H; also called mouse TfR
Put plainly: ELISA, coated mouse TfR ECD, pH 5.5 against pH 7.4. (In an ELISA, binding on a coated surface is turned into a signal by an enzyme label.)

The target in test [2] is T1, extracellular domain of the mouse …. Put plainly: ELISA, coated mouse TfR ECD, pH 7.4.
The target is the same in test [3]. Nature of the test: ELISA, coated mouse TfR ECD, pH 5.5.
The target in test [4] is T2, fusion protein of the human transferrin receptor extracellular domain linked to human IgG1 Fc (human, UniProt P02786 89-760).
T2 construct: extracellular domain; Bought, R&D Systems #2474-TR-050; also called human TfR; not shown: human IgG1 Fc
T2 sequence (P02786 89-760): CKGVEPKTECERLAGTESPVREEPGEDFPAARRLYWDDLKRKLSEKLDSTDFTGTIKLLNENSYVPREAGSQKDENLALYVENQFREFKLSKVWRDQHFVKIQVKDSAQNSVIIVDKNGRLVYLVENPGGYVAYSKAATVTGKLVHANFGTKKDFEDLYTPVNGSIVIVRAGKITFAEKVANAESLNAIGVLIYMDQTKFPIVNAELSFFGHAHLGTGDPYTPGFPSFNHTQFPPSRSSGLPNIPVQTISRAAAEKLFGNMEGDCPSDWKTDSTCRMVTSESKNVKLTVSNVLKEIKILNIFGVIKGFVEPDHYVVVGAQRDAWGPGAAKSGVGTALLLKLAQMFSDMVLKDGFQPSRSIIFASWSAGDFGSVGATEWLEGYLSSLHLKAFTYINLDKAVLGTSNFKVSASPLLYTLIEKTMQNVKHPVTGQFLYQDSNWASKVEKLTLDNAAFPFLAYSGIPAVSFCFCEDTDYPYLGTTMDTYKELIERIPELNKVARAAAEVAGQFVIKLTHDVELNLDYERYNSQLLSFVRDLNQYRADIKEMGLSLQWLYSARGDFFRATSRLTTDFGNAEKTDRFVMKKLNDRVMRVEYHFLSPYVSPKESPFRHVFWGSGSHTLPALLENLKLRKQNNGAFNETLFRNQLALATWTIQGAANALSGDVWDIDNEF
Nature of the test: ELISA, coated human TfR ECD-Fc, pH 7.4. As for the experimental part:
(§1) A fusion protein of the human transferrin receptor extracellular domain linked to human IgG1 Fc (R&D Systems, Wiesbaden, Germany, #2474-TR-050) or the extracellular domain of the mouse transferrin receptor (SinoBiological, Beijing, China, #50741-M07H) or of the human insulin receptor (R&D Systems, Wiesbaden, Germany, #1544-IR/CF) were coated to a 96-well plate by incubating 50 μl of a solution of 1 μg/ml in PBS for 1 h at RT. […] After four further washes with PBS/0.1% (w/v) TWEEN 20, bound antibodies were detected using HRP-coupled secondary antibodies (Dianova, Hamburg, Germany, #109-036-097 or GE Healthcare, Freiburg, Germany, #NA9310V)(30 min., RT) and 50 μl of TMB (10 min., RT) substrate. Color development was stopped by addition of 50 μl of 1 N hydrochloric acid (HCl) and absorbance measured at 450 nm in a plate reader.

The target of test [5] is T2, fusion protein of the human transferrin …. Put plainly: ELISA, coated human TfR ECD-Fc, pH 5.5. How it is done:
as §1

The target is the same in test [6]. Nature of the test: ELISA, coated human TfR ECD-Fc, pH 5.5 against pH 7.4. As for the experimental part: as §1

Usually EC50 stands for the concentration needed to bring the measured effect to its halfway point.

T1 sequence (Q62351 89-763): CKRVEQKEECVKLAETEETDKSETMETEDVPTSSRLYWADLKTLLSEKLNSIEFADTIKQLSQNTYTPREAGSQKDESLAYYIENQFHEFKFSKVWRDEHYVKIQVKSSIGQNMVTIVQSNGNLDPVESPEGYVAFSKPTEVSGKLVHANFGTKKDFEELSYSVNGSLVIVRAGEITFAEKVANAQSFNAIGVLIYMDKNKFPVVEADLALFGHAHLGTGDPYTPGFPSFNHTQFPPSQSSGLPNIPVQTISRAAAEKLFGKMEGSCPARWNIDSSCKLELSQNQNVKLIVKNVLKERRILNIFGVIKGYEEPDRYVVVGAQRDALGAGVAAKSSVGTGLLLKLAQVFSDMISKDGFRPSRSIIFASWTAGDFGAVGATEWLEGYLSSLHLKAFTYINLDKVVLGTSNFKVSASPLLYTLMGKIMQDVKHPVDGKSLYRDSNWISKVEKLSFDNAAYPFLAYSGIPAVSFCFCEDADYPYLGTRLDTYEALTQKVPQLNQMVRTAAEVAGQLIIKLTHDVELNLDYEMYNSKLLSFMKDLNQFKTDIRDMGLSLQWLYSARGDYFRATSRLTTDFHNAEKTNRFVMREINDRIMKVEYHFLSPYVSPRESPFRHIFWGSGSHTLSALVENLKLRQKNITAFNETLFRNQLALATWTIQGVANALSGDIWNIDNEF

B1: mAb 8D3 (rat anti-mouse transferrin-receptor antibody 8D3 variable regions with human IgG1 heavy and light chain constant regions) (antibody, V domains shown)
VH: EVQLVESGGGLVQPGNSLTLSCVASGFTFSNYGMHWIRQAPKKGLEWIAMIYYDSSKMNYADTVKGRFTISRDNSKNTLYLEMNSLRSEDTAMYYCAVPTSHYVVDVWGQGVSVTVSS
VL: DIQMTQSPASLSASLEEIVTITCQASQDIGNWLAWYQQKPGKSPQLLIYGATSLADGVPSRFSGSRSGTQFSLKISRVQVEDIGIYYCLQAYNTPWTFGGGTKLELK
In the case of B1, the “ratio EC50 pH 5.5/EC50 pH 7.4” value in test [1] was found to be 1.1. The values for the concentration giving a half-maximal response (EC50) in test [2] and in test [3] were 0.0511 µg/mL and 0.0549 µg/mL, respectively.

B2: mAb 128.1 (mouse anti-human transferrin-receptor antibody 128.1 variable regions with human IgG1 heavy and light chain constant regions) (antibody, V domains shown)
VH: EVQLQQSGPELVKPGASMKISCKASGYSFTGYTMNWVKQSHGENLEWIGRINPHNGGTDYNQKFKDKAPLTVDKSSNTAYMELLSLTSEDSAVYYCARGYYYYSLDYWGQGTSVTVSS
VL: QIVLTQSPAIMSASPGEKVTMTCSASSSIDYIHWYQQKSGTSPKRWIYDTSKLASGVPARFSGSGSGTSYSLTISSMEPEDAATYYCHQRNSYPWTFGGGTRLEIR
On to B2, for which the half-maximal effective concentration (EC50) amounted to 0.0078 µg/mL in test [4] and 0.0098 µg/mL in test [5]. The “ratio EC50 pH 5.5/EC50 pH 7.4” value in test [6] worked out at 1.3.

Values taken from patent US20170174776A1 (Hoffmann-La Roche, published 2017).
